In patent publication US20200270339A1 (CEPHALON, published 2020):
Values joined by “and” are separate entries in the source; they are usually repeats but may differ in a detail not shown here. Equal values may be shown once.

How the values were obtained:
[1] = target: T1, human IL-15 complexed with the IL-15 Receptor-alpha (human, UniProt P40933 49-162); assay: cell-based or functional assay
Target sequence in this assay (P40933 49-162 limits assumed, one chain of several): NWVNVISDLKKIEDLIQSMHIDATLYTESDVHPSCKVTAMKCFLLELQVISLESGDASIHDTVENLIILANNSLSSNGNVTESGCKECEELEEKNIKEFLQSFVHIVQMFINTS

[2] = target: T1, human IL-15 complexed with the IL-15 …; assay: SPR, run 5
Target sequence in this assay (P40933 49-162 limits assumed, one chain of several): as above

[3] = target: T1, human IL-15 complexed with the IL-15 …; assay: SPR, run 2
Target sequence in this assay (P40933 49-162 limits assumed, one chain of several): as above

[4] = target: T1, human IL-15 complexed with the IL-15 …; assay: SPR, antibody captured on Protein A chip, IL-15 complex as analyte
Description: Binding of Antibody 70 variants to human IL-15 complexed with the IL-15 Receptor-alpha were assessed using surface plasmon resonance on a BIACORE® T200 (GE Healthcare) system using a Protein A Sensor Chip (GE Healthcare). Antibodies were captured onto the second flow cell to a level of 150-200 RU. Purified cytokines were diluted to 10 μg/mL in HBS-EP+. Binding was measured by injection of […] of each cytokine at a flow rate of […] across both flow cells and allowing 180 s of dissociation time. The chip surface was regenerated between cycles with two 10 sec pulses of 50 mM sodium hydroxide. The running buffer used was HBS-EP+ (GE Healthcare) and all interactions were measured at 25° C. and data collection rate set to 10 Hz.
A summary of the surface plasmon resonance data is shown on FIG. 36. The affinity can be measured by the KD (the equilibrium dissociation constant between the antibody and its antigen). […] The large difference in KD between variants of Antibody 70 and AMG714 is driven by the dissociation rate (kd). IL-15 dissociates from AMG714 ten times faster than the rate of dissociation of IL-15 from Antibody 70 variants. […] This was tested in a cell based potency assay.
Target sequence in this assay (P40933 49-162 limits assumed, one chain of several): as above

[5] = target: T1, human IL-15 complexed with the IL-15 …; assay: cell-based or functional assay; remark: listed apart in the source
Target sequence in this assay (P40933 49-162 limits assumed, chain 1 of 2, one chain of several): as the sequence (P40933 49-162 limits assumed, one chain of several) above

[6] = target: T1, human IL-15 complexed with the IL-15 …; assay: SPR, run 4
Target sequence in this assay (P40933 49-162 limits assumed, one chain of several): as above

[7] = target: T1, human IL-15 complexed with the IL-15 …; assay: SPR
Target sequence in this assay (P40933 49-162 limits assumed, one chain of several): as above

[8] = target: T2, uncomplexed IL-15 Receptor α (human); assay: ELISA and cELISA, hybridoma supernatant
T2 construct: also called IL-15Rα; IL15Rα
T2 chain: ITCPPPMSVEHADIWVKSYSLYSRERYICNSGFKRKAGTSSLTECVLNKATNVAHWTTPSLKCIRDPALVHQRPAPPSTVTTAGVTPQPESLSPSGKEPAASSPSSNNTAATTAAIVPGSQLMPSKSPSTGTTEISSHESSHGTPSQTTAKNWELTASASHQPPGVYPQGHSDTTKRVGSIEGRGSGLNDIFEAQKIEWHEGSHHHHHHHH
Description: Microtiter plates were coated with purified IL-15 or purified IL-15Rα or purified IL-15 complex. Briefly, microtiter plates were coated with purified protein in PBS and then blocked with irrelevant proteins such as bovine serum albumin (BSA) diluted in PBS. Dilutions of hybridoma supernatants were added to each well and incubated for 1-2 hours at 37° C. The plates were washed with PBS/TWEEN® 20, and then incubated with a goat-anti-human IgG Fc-specific polyclonal reagent conjugated to a suitable detection reagent […] for 1 hour at 37° C. […] Hybridomas that produced antibodies showing positive reactivity with the IL-15 complex but not with IL-15Rα were selected for further characterization.
cELISA was carried out as follows. HEK cells were transfected with DNA encoding IL-15 and IL-15Rα such that they expressed the IL-15 complex. The transfected HEK cells were coated onto an ELISA plate and dilutions of hybridoma supernatants was applied to the plate so that it could bind to the IL-15 complex expressed on the surface of the cells. The assay was repeated using HEK cells transfected with IL-15Rα such that they expressed uncomplexed IL-15Rα. The advantage of using cELISA in addition to classical ELISA is that a native protein complex is used to screen the antibodies.

[9] = target: T1, human IL-15 complexed with the IL-15 …; assay: SPR, run 6

B1: Antibody 4 (antibody, V domains shown, not shown: a dimerising Fc or GST)
VH: QVQLQESGPGLVKPSGTLSLTCAVSGGSISSSNWWSWVRQPPGKGLEWIGEIYHSGNTNYNPSLKSRVTISVDKSKNQFSLKLISVTAADTAVYYCAREGIGWPSFDYWGQGTLVTVSS
VL: SSELTQDPAASVALGQTVRITCQGDTLRNYYASWYQQKPGQAPILVIYGKNNRPSGIPDRFSGSSSGNTASLTITGAQAEDEADYYCNSRDSSGKNLVFGGGTKLTVLG
notes: from section 3.4 on as recombinant human IgG1 lambda; also called parent antibody; parental antibody
IC50, NK-92 proliferation assay [1]: 0.1 nM
Kd [2]: 0.979 nM
koff [2]: 0.000166 s⁻¹
kon [2]: 170000 M⁻¹ s⁻¹
Kd [3]: 0.982 nM
koff [3]: 0.000138 s⁻¹
kon [3]: 141000 M⁻¹ s⁻¹
Kd [4]: 0.629 nM
IC 50 (NK-92) in pM [5]: 148 pM
Kd [6]: 1.28 nM
koff [6]: 0.000182 s⁻¹
kon [6]: 142000 M⁻¹ s⁻¹
Kd [7]: 0.63 nM and 0.628 nM
koff [7]: 9.43e-05 s⁻¹ and 9.31e-05 s⁻¹
kon [7]: 148000 M⁻¹ s⁻¹ and 150000 M⁻¹ s⁻¹
binding result [8]: no binding
Kd [9]: 1.07 nM
koff [9]: 0.00016 s⁻¹
kon [9]: 150000 M⁻¹ s⁻¹
